Assay results as given in the DeepSol protein solubility set.

test: soluble on expression in E. coli; label from the status in PepcDB or PDB records

Sequence | soluble on expression in E. coli
MSLDNINHILSKELGISLKQVTSVIEMLDEGNTVPFIARYRKERTGGLTDEVLRKFNERLTYLRNLESRKEDVLRIIEEQEKLTPELKLKIEKATTLTEIEDIYRPFKAKKRTRATMAVEKGLKPLAELILSGEFNGDIVEEANKYINEEKGVKNEEEALQGAMDIISEIISDNADYRKWIRNFVQKDGIIQVKGSSEEQTPYEMYYDYKEPVRTIPSHRILAINRGEKEKILSVKVTCNDDKIIDYLNKKVLKENKITDKYLEESIKDSFKRLIYPSIEREIRSELTSKGEEGAIDIFKANLKALLMQAPIKGKVVMGFDPGFRTGCKVAILDETGKFVENTTVYPTAPQNRIDETISTLKKLIKKHGVQVISLGNGTASRESEEVIAKMLKEIKDETGKELFYVIVSEAGASVYSASELANKEYPDLDVTVRGAISIGRRLQDPLAELVKIDPKAIGVGQYQHDVTQKKLDESLAGIVEDCVNNVGVDLNIATPSLLSYISGINASIAKNIVDYREENGKFKSRKELLKVKRLGQKAYEQCAGFLRVMESKEALDNTSVHPESYKVAKELIKTLGYTEEDEGHHHHHH | soluble
MSLDNLITIYDKNDANNLAEHLYDTQGLGALSDWLTATVSNKLNGAEIFQGTYSINGTNADLIVEGRIIQCYVDENRAKQRLRIYYAKTSVIGNTIEVKAEPIFNDIRKSVLNKYDSGTEKITATQAWQNAKVLAKPAIPSQFSFSSLVDTLANVKIEKANFLEFFGGKEGSILDRFHGEFLKDNNTLRHEKSLGTDHKIKAIYTKNLTGLDLEIDAQSVLVGVYPFISSSSEGEDEITLPEEVIFTDYVDDYPAGYVSFVDFKDKATDVATLREAAKDWLKTNIDKQKPQVSGSIELVPLRHQRGYEKFVDLEKVSMGDGVDVYHPQLKVNMSARIVEYTFNVLTNSYDKLVVGNVKTNFLENTENNVSNLINDEGHHHHHH | soluble
MSLDNMAKRQTKDIETIIQKIYYAKNRHLGTYTPLKNNSELEEINNYIYDLFESNEQLIHSIEHTERRLRDIQLKEIERQFQPHFLFNTMQTIQYLITLSPKLAQTVVQQLSQMLRYSLRTNSHTVELNEELNYIEQYVAIQNIRFDDMIKLHIESSEEARHQTIGKMMLQPLIENAIKHGRDTESLDITIRLTLARQNLHVLVCDNGIGMSSSRLQYVRQSLNNDVFDTKHLGLNHLHNKAMIQYGSHARLHIFSKRNQGTLICYKIPLSRGNVDVEGHHHHHH | not soluble
MSLDNSRTRPRVGHIQFLNCLPLYWGLARTGTLLDFELTKDTPEKLSEQLVRGDLDIGPVTLVEFLKNADDLVAFPDIAVGCDGPVMSCVIVSQVPLDRLDGARVALGSTSRTSVRLAQLLLSERFGVQPDYYTCPPDLSLMMQEADAAVLIGDAALRANMIDGPRYGLDVHDLGALWKEWTGLPFVFAVWAARRDYAEREPVITRKVHEAFLASRNLSLEEVEKVAEQAARWEAFDEDTLAKYFTTLDFRFGAPQLEAVTEFARRVGPTTGFPADVKVELLKPEGHHHHHH | soluble
MSLDPTRVDLLSICKEILTYPEYQERLPAGSAHPNIDSPAIKSLYAEIGRHSRQQTHVPSHYQLPPGDHLLIKQLAKITQDLGTPAKLDEIMVTHGAQQAISLALRATTQKGDIVAVESPCYFGNLLMLESLGLKVVEIPSCPRDGMCPEALAKTMATWDIKALIVTPNFTNPTGAMMPLEKRQQLLLASGNIPIIEDDVFGGLSYDKPLPSLSLLDDKQRVIYVNSLSKTLDSRLRIGWMLAGRYRDQIEQYLLCENMGSLNLMQSAVATFLTSGKYRTHTARMGRVYQNNMRRFIQMLHQYLDEYESLKNRYQINAVQGSFLLWLRLPEDTDSYALYQACNKHRISLLPGTVFGTQEQYRHCVRLSVANFGHETDWSHAMQTLAKLIAKRVCEGHHHHHH | soluble
MSLDSLGAINKIQDFLQKQEYKTLEYNLTTTEVVMENVTAFWEEGFGELFEKAKQNNNNRKTSNGDDSLFFSNFSLLGTPVLKDINFKIERGQLLAVAGSTGAGKTSLLMMIMGELEPSEGKIKHSGRISFCSQFSWIMPGTIKENIIFGVSYDEYRYRSVIKACQLEEDISKFAEKDNIVLGEGGITLSGGQRARISLARAVYKDADLYLLDSPFGYLDVLTEKEIFESCVCKLMANKTRILVTSKMEHLKKADKILILMKVAAIFMGHFQNSKIYSQTLAQNSWDVILSTNLVQKEEIQS | soluble
MSLDVINQLPSPEALLEELHRVVSKPIRLMVVCGTHNRAILRYGIREELPDFIELVAGPGCSVCVMPTGHVDAFVKVARQPDVITATCEDLLKVRGSKESLADVLNEGVHRVEIISSPRQALELAYVEEDKIVVYPAVGFEATAPSIAETILEAAQNGVGNFCVIPSIRLLPPTIDALLLDPQLSIQGLLCSDHINTISDTEAYADLARKHSLSCCIAGFEKAEILQGILSMVKQIHRGESMVDASGAMVYSMEETARARRVVEEVFFPTETAWRGLGSIAESGFVIRDELALYDATKRFNVRFAEGTDQCMCHCNEIISGRALPPDCPAFGMACTLQNPVGPCMISNEGICAAYFKYKLESSRFSRLDVEGHHHHHH | soluble
MSLDVPLAQTVVWETHVGDFSNDPAGGFPESHRGKYLAFTDDGTSLEGHPDFPTGLAYLKKLGVTAVQLMPIYDFGSVDETTCDRYNWGYDPINYNVPEGSYSTNPFDGTTRIREVKQMVQALHSAGIKVIMDVVYNHMFSTDNWFERTVPKYFLRRKPNGALANGSGCGCDMATERKMFRRFIVESVTFWAREYHMDGFRFDLMGLIDVDTMNAVRAALNEIPGRGRDILMYGEPWSAGASAPLPADTLLAGKQGLAQLDDRIGHFCDTTRDTIKGHVFYSDRPGYVNGGMHANAVAVREAVDAWRHSDRPEGVAGQVIQYVSAHDDLTLWDKLCASLAASSLGSAVAEGDEENTVDVPKTLHDADFSEQGLDAVGPEMAQALHDVLGANRLSAGIVLTSAGIPFMLSGEEFARTKYGNSDSYDSTKELNWLDWNRAWHMRDLIGFYAKLIALRKSDARWFDGNRKIVDTEGDELVFRVGDYLVAVNPSDRTGVVDVAAAAVEGDSGEMHRYWCCLGVSGRGGGVSTGGGDDDYLIMPAHTFAIWRLQEGHHHHHH | not soluble
MSLDVTDAQAIADHWGRGDVFGLIVAALNQMAKPLDGLTVEELAPVDHFHSRGFPATVEFADRLPINAGEQILDIGCGLGGPARYMAKRFQCRVSGIDITGPFVEAANRLTALLHMEQQVEIAQGNGQRLPYPDSCFDGAYTQDVTMNVAERAGFFAEAYRVLKPGAFFALSEHGLGPQGKPHYPVPWSDDGTGAYLTAPAETRAILERTGFEAITVEDTGAKCVAGYGKVIERAEKGALPPLGLHLFMGESMVEKMRNAARNIEEGRTHPIQLICRKEGHHHHHH | soluble
MSLDYSTSLRFQSQLERSMTEALNALGYYHPSIDFTVSEDNQRLRAAVTLGEVTRLSEVDIVIRGEAEGDRDFQRLIRRSGLRVDAPLNHSLYDNLKSGIRNLALQKGYFNGDFQASRLEVIPELNQARVILHFDSGIRYLFGATTVEGSQIDENRVMSLRPFKQGEPYLVSQVGEFNQNLSNTDWFSSVFVEPDLSQLDEGRELPIKVTLAPQARNQLETGLGYSTDVGVRGSLKWKKPWVNSQGHSFDSSFSLSIPEQTITAGYKIPLEDALNEYYRIQYGMKHLDKRDTESLESNLSLERHWQLDGGWHRTVFIRYLLENYRQGLQDDNSQFLLPGMTYTRTRTRSNSGLLTWGDKQTITLEYGDPALLSETRVLRLQTGSSWLRTYARNHRALVRVDGGANLVDEFDQLSPSLRFFAGGDNNLRGYGYKSISPQDASGALTGAKYIATSSIEYQYRLTGNWWAAMFMDVGDAFNDNPEWKKGVGTGIRWISPVGPIRLDFAWGLDAAPGDEFKIHFTLGPELEGHHHHHH | not soluble
MSLDYTYADDSLTLHTDMYQINMMQTYWELGRADLHAVFECYFREMPFNHGYAIFAGLERLVNYLENLTFTESDIAYLREVEEYPEDFLTYLANFEFKCTVRSALEGDLVFNNEPLIQIEGPLAQCQLVETALLNMVNFQTLIATKAARIKSVIGDDPLLEFGTRRAQELDAAIWGTRAAYIGGADATSNVRAGKIFGIPVSGTHAHSLVQSYGNDYEAFMAYAKTHRDCVFLVDTYDTLKAGVPSAIRVAREMGDKINFLGVRIDSGDMAYISKRVREQLDEAGFTEAKIYASNDLDENTILNLKMQKSKIDVWGVGTKLITAYDQPALGAVFKLVSIEGEDGQMKDTIKLSSNAEKVTTPGKKQVWRITRKSDKKSEGDYVTLWNEDPRQEEEIYMFHPVHTFINKYVRDFEARPVLQDIFVEGKRVYELPTLDEIKQYAKENLDSLWEEYKRDLNPQKYPVDLSTDCWNHKMNLLEKVRKDVKHLTETVNKEAEGHHHHHH | soluble
MSLEAFIRSDQYNFIKSQAYILANGHATANDRGVIQALKSLAIEKIIHVFENLTDEQKELIDTVLTVQNREDAESFLMKIKPYVIPFQEVTAQTLKKLFPKAKKLKLPDMEEMDMKEISYLSWIDKGSSRKFIIAKNDKNKFVGLQGTFQSLNKKSICSLCHGHEEVGMFLVEIKGDIPGTFVKKGNYICKDGVACNQNMKSLDKLQDFIERLKKEGHHHHHH | soluble
MSLEAKMEQIYQQIADTLVNIVPEEWKQILLYAEYREGYKKIFFYYYPETRIKPVYSLDITDLFHMNEDKYHELENKLYHCFSRLWEEFKEQEQQQWTNLTYTLDNTGRMKINYGYEDLFELSPVEKQEKWEAEYLEQEIEEGHHHHHH | soluble
MSLEASLLKKNQSIELTIEDLTHDGSGVGKIDGYPFFIPNTLPGEKVTAKIIKLNKNYGFARMENIETVSANRVEPPCAVYSKCGGCSLQHLSYDGQLEFKRNQVEETMKRIGKLNVEVPETLGMENPWRYRNKSQVPVGFVNGKLTAGFYQKRSHAIIDMSTCLIHNEQGDFAVQKTREILAKYGTEPYDEQTGKGDIRHIMTRFAHTTGQLMIVLVTTKERMPFKEEIVRDLVEQLELTSIVQNINPHKTNVIFGDRTKTLWGKDIIEDTIHGIRFAISARSFYQVNPLQTEVLYQQAIDAAELTGEETVIDAYCGIGSISLCLAKKAKHVYGVEIVDQAIQDARANAELNELANTTFETGKAEEVIPSWYKAGIVADVLVVDPPRKGCDEKLLETILAMKPKKVVYVSCNPGTLARDMKILTDGGYVAKKVQPVDMFPMTTHIEAVTVLHLNEGHHHHHH | soluble
MSLEDHAEELASDLGVDKEEVTRDLENLVNYSVPMDEAKQSLRRKYGDGSSGGDSTPSSKAINEVSTEDSNVTVTAVVLTSGRRSIQYNGEQHVIREGELADETGKISYTAWDGFSGDLQPGQTVQLGNAGVREWDGQPELNLGDSTDPEVVDETLDIDYDVGGRAALQDLAPGDRGITVEVQVLECEQKVIDGRDGETTILSGVLGDESGRLPFTDWDPHDEIEEGASVRLDETFVREFRGAPSVNVSEFSAVTALDRTVGVTEDAPRLSVREAVESGGLFDVELAGNVIEVRDGSGLIERCPECGRVIQNGQCRSHGAVEGEDDLRTKAILDDGTDTVTAVLDDELTARVYGGDLDDAREHARDAMDKEVVAERISDRIVGREYVVRGSLSVDEYGANLTASTFAEADDDPATRAQALLQEADTLEHHHHHH | soluble
